Experimental data taken from patent US20140011978A1 (EPFL TTO, published 2014).

Key:
PDGF-AB = target: T1, PDGF-AB (UniProt P04085 87-211; P01127 82-190, limits assumed); assay: ELISA, cytokine coated, Fg β15-66 in solution (methods as Example 3)
T1 construct: The name implies a heterodimer of A and B chains
Procedure: (§1) ELISA plates were coated with cytokines or BSA and further incubated with TNC III1-5 to analyze binding of TNC III1-5 to a wide variety of cytokines. […] A large amount of heparin (4 μM) impaired binding of TNC III1-5 to these cytokines. Results are depicted in FIG. 3. Method: 50 nM of cytokine was coated for (1 hr, 37° C.). After blocking with 2% BSA (1 hr, RT). 100 nM TNC III1-5 was applied in PBST (0.05% tween, 0.1% bovine serum albumin (BSA)) (1 hr, RT). TNC III1-5 was detected with horseradish peroxidase (HRP)-anti-HIS in PBST (1 hr, RT) and developed with 3,3′,5,5′-tetramethylbenzidine (TMB), a soluble colorimetric HRP […]. Addition of sulfuric acid stop solution changes the color to yellow, enabling accurate measurement of the intensity at 450 nm using a spectrophotometer or plate reader. […] Heparin (4 μM) was added to TNC III1-5 to test the effect of blocking the heparin binding site of TNC III1-5, which has been defined as domain TNC III5 (Weber, Zimmermann, et al., 1995).
(§2) ELISA plates were coated with cytokines or BSA and further incubated with Fg β15-66 to analyze binding of […] to a wide variety of cytokines. […] Results are depicted in FIG. 4. Method: The methods were analogous to those used in Example 3.

FGF-5 = target: T2, FGF-5 (UniProt P12034 21-268, limits assumed); assay: as above
T2 sequence (looked up): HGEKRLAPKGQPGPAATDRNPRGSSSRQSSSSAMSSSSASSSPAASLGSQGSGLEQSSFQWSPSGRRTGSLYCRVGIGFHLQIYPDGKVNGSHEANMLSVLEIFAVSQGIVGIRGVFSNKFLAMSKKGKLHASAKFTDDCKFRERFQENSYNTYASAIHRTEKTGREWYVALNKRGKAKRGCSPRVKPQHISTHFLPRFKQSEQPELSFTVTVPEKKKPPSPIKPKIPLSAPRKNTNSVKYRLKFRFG
Procedure: as §1, §2

BMP-2/7 = target: T3, BMP-2/7 (UniProt P12643 283-396; P18075 293-431); assay: as above
T3 construct: The name implies a BMP-2/BMP-7 heterodimer
Procedure: as §1, §2

TGF-β1 = TGF-β1 (UniProt P01137 279-390); assay: SPR, Fg β15-66 on the chip, cytokine injected (methods as Example 5), Langmuir fit
Procedure: (§3) Surface plasmon resonance (SPR) was done to quantify the affinity of specific cytokines to TNC III1-5. […] Method: Surface plasmon resonance chips were functionalized with TNC III1-5 or BSA and cytokines were injected over the chips at different concentrations. The chips contained gold with free carboxyl groups that were activated to bind TNC III1-5 in one channel and BSA as a reference protein in another channel. The specific response of a cytokine to TNC III1-5 (in RU) was obtained relative to the response to BSA. Results are depicted in FIG. 5.
(§4) Surface plasmon resonance (SPR) was done to quantify the affinity of specific cytokines to Fg β15-66. […] Method: The methods used above were analogous to those used in Example 5. Fits of the experimental data were made with Langmuir binding kinetics. Results are depicted in FIG. 6.

PlGF-2 = target: T4, PlGF-2 (UniProt P49763-3 19-170); assay: as above
T4 sequence (looked up): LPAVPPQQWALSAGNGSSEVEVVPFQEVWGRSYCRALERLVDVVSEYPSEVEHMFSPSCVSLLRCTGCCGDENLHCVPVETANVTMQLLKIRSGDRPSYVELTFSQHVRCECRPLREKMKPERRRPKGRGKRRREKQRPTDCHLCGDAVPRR
Procedure: as §3, §4

IGF-BP5 = IGF-BP5 (UniProt P24593 21-272); assay: as above
Procedure: as §3, §4

FGF-2 = FGF-2 (UniProt P09038 135-288, limits assumed); assay: as above
Procedure: as §3, §4

PlGF-1 = target: T5, PlGF-1 (UniProt P49763-2 19-149); assay: ELISA: growth factor coated, Fg fragment in solution, A450 (methods analogous to Example 3)
T5 sequence (looked up): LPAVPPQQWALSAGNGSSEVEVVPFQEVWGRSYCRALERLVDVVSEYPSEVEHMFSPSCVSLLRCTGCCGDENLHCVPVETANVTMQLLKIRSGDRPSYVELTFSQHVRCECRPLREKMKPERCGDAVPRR
Procedure: as §1, §2

BSA = target: T6, BSA (bovine, UniProt P02769); assay: ELISA: BSA coated as control, Fg fragment in solution, A450 (methods analogous to Example 3)
T6 construct: negative control; also called bovine serum albumin
Procedure: as §1, §2

Sequence of IGF-BP5 (P24593 21-272 limits assumed): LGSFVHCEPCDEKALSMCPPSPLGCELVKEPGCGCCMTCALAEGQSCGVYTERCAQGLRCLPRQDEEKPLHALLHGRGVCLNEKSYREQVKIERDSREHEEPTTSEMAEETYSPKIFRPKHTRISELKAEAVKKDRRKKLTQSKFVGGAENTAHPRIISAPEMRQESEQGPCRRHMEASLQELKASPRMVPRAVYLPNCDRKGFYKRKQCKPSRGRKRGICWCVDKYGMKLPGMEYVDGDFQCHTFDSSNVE
Sequence of TGF-β1 (P01137 279-390 limits assumed): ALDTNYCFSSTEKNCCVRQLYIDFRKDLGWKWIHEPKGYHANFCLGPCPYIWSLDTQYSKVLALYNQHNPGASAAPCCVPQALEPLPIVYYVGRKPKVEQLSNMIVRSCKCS
T3 sequence (P12643 283-396, chain 1 of 2): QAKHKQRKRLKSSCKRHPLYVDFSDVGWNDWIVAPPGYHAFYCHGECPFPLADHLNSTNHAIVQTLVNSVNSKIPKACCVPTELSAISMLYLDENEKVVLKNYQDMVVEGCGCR
T3 sequence (P18075 293-431, chain 2 of 2): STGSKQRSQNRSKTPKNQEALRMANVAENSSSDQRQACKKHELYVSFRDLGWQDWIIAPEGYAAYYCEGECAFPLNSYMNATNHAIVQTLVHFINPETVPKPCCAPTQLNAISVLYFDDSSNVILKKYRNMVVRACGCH
T6 sequence (P02769 25-607 limits assumed): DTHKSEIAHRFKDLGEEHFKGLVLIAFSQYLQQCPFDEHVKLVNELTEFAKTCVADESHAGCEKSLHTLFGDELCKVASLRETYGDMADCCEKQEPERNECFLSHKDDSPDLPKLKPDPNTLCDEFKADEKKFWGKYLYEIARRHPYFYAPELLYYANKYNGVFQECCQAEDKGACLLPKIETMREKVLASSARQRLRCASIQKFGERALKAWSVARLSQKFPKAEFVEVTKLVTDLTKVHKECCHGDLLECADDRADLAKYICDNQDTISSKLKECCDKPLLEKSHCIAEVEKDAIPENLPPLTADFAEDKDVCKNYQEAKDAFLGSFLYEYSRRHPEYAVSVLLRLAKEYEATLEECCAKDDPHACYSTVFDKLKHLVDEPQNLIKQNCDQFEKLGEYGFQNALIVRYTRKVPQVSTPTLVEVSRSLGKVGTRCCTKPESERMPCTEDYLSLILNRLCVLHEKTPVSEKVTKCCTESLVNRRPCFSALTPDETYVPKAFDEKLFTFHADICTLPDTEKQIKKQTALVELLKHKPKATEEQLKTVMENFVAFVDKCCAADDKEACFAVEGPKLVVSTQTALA
T1 sequence (P01127 82-190 limits assumed, chain 2 of 2, other chains not shown): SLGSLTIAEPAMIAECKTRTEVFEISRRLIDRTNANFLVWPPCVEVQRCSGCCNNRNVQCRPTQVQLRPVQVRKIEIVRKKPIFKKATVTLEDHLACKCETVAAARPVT
Sequence of FGF-2 (P09038 135-288 limits assumed): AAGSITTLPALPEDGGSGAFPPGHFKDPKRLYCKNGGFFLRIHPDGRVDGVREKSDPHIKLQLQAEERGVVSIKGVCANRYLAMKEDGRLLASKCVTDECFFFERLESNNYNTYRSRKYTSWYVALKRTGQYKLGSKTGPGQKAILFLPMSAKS

B1: Fg β15-66 (other)
chain: GSNQEQVSPLGHRPLDKKREEAPSLRPAPPPISGGGYRARPAKAAATQKKVERKAPDAGGCGHHHHHH
notes: Made as a GST fusion; GST was cleaved off; also called TG-Fg β15-66; fibrinogen β15-66 domain
B1: binds (PDGF-AB); binds (FGF-5); binds (BMP-2/7). For the same binder, the Kd (TGF-β1) was 56.5 nM, the Kd (PlGF-2) was 1.9 nM and the Kd (IGF-BP5) was 19.6 nM. The Kd (FGF-2) was 53 nM, the binding result (PlGF-1) was “no binding” and the binding result (BSA) was “no binding”.
